The experiment concerns the target T1, Coactosin (Entamoeba histolytica, UniProt C4M4P4).
T1 chain: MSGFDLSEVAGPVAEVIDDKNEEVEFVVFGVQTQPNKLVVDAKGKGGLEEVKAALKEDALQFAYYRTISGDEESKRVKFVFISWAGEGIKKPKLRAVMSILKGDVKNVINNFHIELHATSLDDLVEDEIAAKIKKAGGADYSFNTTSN
The experiment in a line: SPR.

B1: EhP3 (protein)
chain: MAESREDCVFLSKLAEQSERYDEMVQYMKQVAALNTELSVEERNLLSVAYKNVIGSRRASWRIITSLEQKEQAKGNDKHVEIIKGYRAKIEDELAKYCDDVLKVIKENLLPNASTSESKVFYKKMEGDYYRYYAEFTVDEKRQEVADKSLAAYTEATEISNADLAPTHPIRLGLALNFSVFYYEIMNDADKACQLAKQAFDDSIAKLDEVPESSYKDSTLIMQLLRDNLTLWTSDTADEE
By Kd is commonly meant the constant that tells how readily two partners part at equilibrium. The low end stands for a tighter complex, the high end for a looser complex. Consider B1, for which the affinity, expressed as Kd, was 3000 nM.

The values are drawn from publication PMC6541287 (2019).
